In patent publication US20220305081A1 one finds level of IFNγ secreted by T cells, relative to OX119-treated cells and level of IFNγ secreted by T cells, relative to cells treated with LSB2.20 data, which are given here for one substance.

Bounds are passed on as bounds.

This test deals with human SIRPγ (signal regulatory protein gamma), expressed on cells (human) (UniProt Q9P1W8). In words: cell-based or functional assay.
UniProt Q9P1W8, sequence (Q9P1W8 29-387): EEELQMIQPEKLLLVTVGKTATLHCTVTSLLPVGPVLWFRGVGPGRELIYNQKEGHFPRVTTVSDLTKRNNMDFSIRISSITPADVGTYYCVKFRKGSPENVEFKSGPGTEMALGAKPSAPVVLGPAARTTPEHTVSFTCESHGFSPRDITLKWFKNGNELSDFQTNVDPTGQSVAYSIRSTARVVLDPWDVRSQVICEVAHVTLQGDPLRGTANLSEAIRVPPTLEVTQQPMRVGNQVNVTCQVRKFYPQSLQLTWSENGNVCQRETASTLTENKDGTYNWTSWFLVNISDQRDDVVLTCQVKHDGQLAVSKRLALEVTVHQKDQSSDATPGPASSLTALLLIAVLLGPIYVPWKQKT

Take “anti-SIRPγ monoclonal antibody clone OX117”: the level of IFNγ secreted by T cells, relative to OX119-treated cells is greater than 6 fold and the level of IFNγ secreted by T cells, relative to cells treated with LSB2.20 was determined as 2 fold.
